# In PMC7045587:
# “Also recorded” adds a separate entry of the source.
# What was measured:
# Conditions in all cases: control: wild type
# activity at 30-90 °C = experiment: activity at 30-90 °C
# [1] = DNS reducing-sugar assay, 60 °C
# activity across pH 3-9 = experiment: activity across pH 3-9
# [2] = Michaelis-Menten kinetics, 60 °C, pH 4
# [3] = thermal inactivation half-life at 80 °C
# [4] = protein yield after purification from P. pastoris
# [5] = thermal inactivation half-life at 90 °C
# [6] = residual activity after 200 min at 30-90 °C
Protein,other: optimal temperature of activity (activity at 30-90 °C; glycan gained),"enzymatic_activity, other: specific activity ([1]; glycan gained)",other: optimal pH of activity (activity across pH 3-9; glycan gained),"enzymatic_activity, kcat_Km ([2]; glycan gained)","stability_or_folding, half_life ([3]; glycan gained)",expression_or_secretion ([4]; glycan gained),"stability_or_folding, half_life ([5]; glycan gained)",stability_or_folding ([6]; glycan gained),other: optimal temperature of activity (activity at 30-90 °C; glycan lost),"enzymatic_activity, other: specific activity ([1]; glycan lost)",other: optimal pH of activity (activity across pH 3-9; glycan lost),"enzymatic_activity, kcat_Km ([2]; glycan lost)","stability_or_folding, half_life ([3]; glycan lost)",expression_or_secretion ([4]; glycan lost),"stability_or_folding, half_life ([5]; glycan lost)",stability_or_folding ([6]; glycan lost)
CTendo45: L47T (protein) parent chain: MHLSQLALPLLLAAGAHAQGAQGTGRTTRYWDCCKPSCAWPGKSNALQPVQTCNAQDQPLNDGGNTRSGCDSGGSAFMCSNQSPWALNETLSYGWAAVRIAGQSEFNWCCACYELTFTSGPVAGKKMIVQATNTGGDLGSNHFDIAIPGGGVGIFNACTQQYGAPPNGWGERYGGIRSRSECDSFPEALKAGCYWRFDWFLGADNPDVSFKQVACPAAITAKSKCVRQRDVIDQTPTGPEIVPTWTP,no change,"increases, 1.36 ± 0.06 vs 1.21 ± 0.08; also recorded: increases, 2.17 ± 0.08 vs 2.07 ± 0.14",no change,"increases, 74.65 ± 1.36 vs 62.06 ± 1.25; also recorded: increases, 192.43 ± 1.85 vs 138.46 ± 2.07","increases, 230 vs 150; also recorded: increases, 210 vs 130",no change,"increases, 55 vs 35; also recorded: increases, 45 vs 28",increases,–,–,–,–,–,–,–,–
CTendo45: Q56T (protein) parent chain: MHLSQLALPLLLAAGAHAQGAQGTGRTTRYWDCCKPSCAWPGKSNALQPVQTCNAQDQPLNDGGNTRSGCDSGGSAFMCSNQSPWALNETLSYGWAAVRIAGQSEFNWCCACYELTFTSGPVAGKKMIVQATNTGGDLGSNHFDIAIPGGGVGIFNACTQQYGAPPNGWGERYGGIRSRSECDSFPEALKAGCYWRFDWFLGADNPDVSFKQVACPAAITAKSKCVRQRDVIDQTPTGPEIVPTWTP,no change,"increases, 1.28 ± 0.10 vs 1.21 ± 0.08; also recorded: no change, 2.09 ± 0.15 vs 2.07 ± 0.14",no change,"increases, 70.67 ± 1.74 vs 62.06 ± 1.25; also recorded: increases, 177.29 ± 1.47 vs 138.46 ± 2.07","decreases, 110 vs 150; also recorded: decreases, 100 vs 130",no change,"decreases, 20 vs 35; also recorded: decreases, 15 vs 28",decreases,–,–,–,–,–,–,–,–
CTendo45: W169S (protein) parent chain: MHLSQLALPLLLAAGAHAQGAQGTGRTTRYWDCCKPSCAWPGKSNALQPVQTCNAQDQPLNDGGNTRSGCDSGGSAFMCSNQSPWALNETLSYGWAAVRIAGQSEFNWCCACYELTFTSGPVAGKKMIVQATNTGGDLGSNHFDIAIPGGGVGIFNACTQQYGAPPNGWGERYGGIRSRSECDSFPEALKAGCYWRFDWFLGADNPDVSFKQVACPAAITAKSKCVRQRDVIDQTPTGPEIVPTWTP,no change,–,no change,–,–,no change,–,–,–,–,–,–,–,–,–,–
CTendo45: F143S (protein) parent chain: MHLSQLALPLLLAAGAHAQGAQGTGRTTRYWDCCKPSCAWPGKSNALQPVQTCNAQDQPLNDGGNTRSGCDSGGSAFMCSNQSPWALNETLSYGWAAVRIAGQSEFNWCCACYELTFTSGPVAGKKMIVQATNTGGDLGSNHFDIAIPGGGVGIFNACTQQYGAPPNGWGERYGGIRSRSECDSFPEALKAGCYWRFDWFLGADNPDVSFKQVACPAAITAKSKCVRQRDVIDQTPTGPEIVPTWTP,no change,–,no change,–,–,no change,–,–,–,–,–,–,–,–,–,–
CTendo45: R67S (protein) parent chain: MHLSQLALPLLLAAGAHAQGAQGTGRTTRYWDCCKPSCAWPGKSNALQPVQTCNAQDQPLNDGGNTRSGCDSGGSAFMCSNQSPWALNETLSYGWAAVRIAGQSEFNWCCACYELTFTSGPVAGKKMIVQATNTGGDLGSNHFDIAIPGGGVGIFNACTQQYGAPPNGWGERYGGIRSRSECDSFPEALKAGCYWRFDWFLGADNPDVSFKQVACPAAITAKSKCVRQRDVIDQTPTGPEIVPTWTP,no change,"increases, 1.58 ± 0.12 vs 1.21 ± 0.08; also recorded: increases, 2.62 ± 0.13 vs 2.07 ± 0.14",no change,"increases, 83.49 ± 1.25 vs 62.06 ± 1.25; also recorded: increases, 198.76 ± 2.17 vs 138.46 ± 2.07","increases, 190 vs 150; also recorded: increases, 160 vs 130",no change,"increases, 45 vs 35; also recorded: increases, 35 vs 28",increases,–,–,–,–,–,–,–,–
CTendo45: G63T (protein) parent chain: MHLSQLALPLLLAAGAHAQGAQGTGRTTRYWDCCKPSCAWPGKSNALQPVQTCNAQDQPLNDGGNTRSGCDSGGSAFMCSNQSPWALNETLSYGWAAVRIAGQSEFNWCCACYELTFTSGPVAGKKMIVQATNTGGDLGSNHFDIAIPGGGVGIFNACTQQYGAPPNGWGERYGGIRSRSECDSFPEALKAGCYWRFDWFLGADNPDVSFKQVACPAAITAKSKCVRQRDVIDQTPTGPEIVPTWTP,no change,"decreases, 0.91 ± 0.08 vs 1.21 ± 0.08; also recorded: decreases, 1.71 ± 0.11 vs 2.07 ± 0.14",no change,–,"decreases, 130 vs 150; also recorded: decreases, 110 vs 130",no change,"decreases, 25 vs 35; also recorded: decreases, 20 vs 28",decreases,–,–,–,–,–,–,–,–
CTendo45: T90A (protein) parent chain: MHLSQLALPLLLAAGAHAQGAQGTGRTTRYWDCCKPSCAWPGKSNALQPVQTCNAQDQPLNDGGNTRSGCDSGGSAFMCSNQSPWALNETLSYGWAAVRIAGQSEFNWCCACYELTFTSGPVAGKKMIVQATNTGGDLGSNHFDIAIPGGGVGIFNACTQQYGAPPNGWGERYGGIRSRSECDSFPEALKAGCYWRFDWFLGADNPDVSFKQVACPAAITAKSKCVRQRDVIDQTPTGPEIVPTWTP,–,–,–,–,–,–,–,–,no change,"increases, 2.24 ± 0.18 vs 1.21 ± 0.08; also recorded: increases, 3.39 ± 0.21 vs 2.07 ± 0.14",no change,"increases, 97.54 ± 2.13 vs 62.06 ± 1.25; also recorded: increases, 217.90 ± 2.83 vs 138.46 ± 2.07","increases, 260 vs 150; also recorded: increases, 230 vs 130",no change,"increases, 65 vs 35; also recorded: increases, 50 vs 28",increases
CTendo45: F143T (protein) parent chain: MHLSQLALPLLLAAGAHAQGAQGTGRTTRYWDCCKPSCAWPGKSNALQPVQTCNAQDQPLNDGGNTRSGCDSGGSAFMCSNQSPWALNETLSYGWAAVRIAGQSEFNWCCACYELTFTSGPVAGKKMIVQATNTGGDLGSNHFDIAIPGGGVGIFNACTQQYGAPPNGWGERYGGIRSRSECDSFPEALKAGCYWRFDWFLGADNPDVSFKQVACPAAITAKSKCVRQRDVIDQTPTGPEIVPTWTP,no change,–,no change,–,–,no change,–,–,–,–,–,–,–,–,–,–
